Reference: US20200317768A1 (published 2020)

T1: cynomolgus monkey FcγRIIIaS extracellular domain, C-terminal His-tag (cynomolgus monkey, UniProt Q8SPW2 21-206 at identity 1.00))
T1 construct: also called cyno FcγRIIIaS; cynoFcγRIIIaS
T1 chain: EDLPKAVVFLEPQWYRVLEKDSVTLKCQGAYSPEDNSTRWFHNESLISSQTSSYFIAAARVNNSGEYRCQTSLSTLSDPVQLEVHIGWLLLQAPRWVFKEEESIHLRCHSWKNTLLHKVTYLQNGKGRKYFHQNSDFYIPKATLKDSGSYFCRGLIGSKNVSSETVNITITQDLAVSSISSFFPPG

T2: human FcγRIIaR extracellular domain, C-terminal His-tag (human, UniProt P12318 34-217)
T2 construct: also called human FcγRIIa (type R); FcgRIIaR
T2 chain: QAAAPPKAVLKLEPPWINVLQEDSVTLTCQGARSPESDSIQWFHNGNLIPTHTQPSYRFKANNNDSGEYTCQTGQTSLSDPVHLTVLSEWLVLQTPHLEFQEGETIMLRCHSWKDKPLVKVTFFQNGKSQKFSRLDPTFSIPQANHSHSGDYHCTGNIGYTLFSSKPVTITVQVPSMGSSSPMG

T3: cynomolgus monkey FcγRIIa2 extracellular domain, C-terminal His-tag (cynomolgus monkey)
T3 construct: also called cyno FcγRIIa2; cynoFcgRIIa2
T3 chain: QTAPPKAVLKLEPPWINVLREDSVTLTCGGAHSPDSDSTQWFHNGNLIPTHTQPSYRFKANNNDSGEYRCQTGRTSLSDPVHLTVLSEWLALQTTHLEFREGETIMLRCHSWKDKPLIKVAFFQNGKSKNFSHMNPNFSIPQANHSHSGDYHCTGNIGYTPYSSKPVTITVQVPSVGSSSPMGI

T4: cynomolgus monkey FcγRIIb extracellular domain, C-terminal His-tag (cynomolgus monkey)
T4 construct: also called cyno FcγRIIb; cynoFcγRIIb
T4 chain: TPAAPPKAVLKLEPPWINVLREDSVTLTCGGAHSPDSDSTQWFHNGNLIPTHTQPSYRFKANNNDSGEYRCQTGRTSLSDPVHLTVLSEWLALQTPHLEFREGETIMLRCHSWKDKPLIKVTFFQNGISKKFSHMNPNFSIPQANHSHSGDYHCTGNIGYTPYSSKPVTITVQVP

T5: human FcγRIIaH extracellular domain, C-terminal His-tag (human, UniProt P12318 34-217)
T5 construct: also called human FcγRIIa (type H); FcgRIIaH
T5 sequence: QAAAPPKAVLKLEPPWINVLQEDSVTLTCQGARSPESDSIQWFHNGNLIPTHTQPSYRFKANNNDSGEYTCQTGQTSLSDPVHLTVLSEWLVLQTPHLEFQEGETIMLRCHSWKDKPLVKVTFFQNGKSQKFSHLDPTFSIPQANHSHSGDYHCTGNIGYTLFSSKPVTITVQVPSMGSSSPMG

T6: cynomolgus monkey FcγRIIa1 extracellular domain, C-terminal His-tag (cynomolgus monkey)
T6 construct: also called cyno FcγRIIa1; cynoFcgRIIa1
T6 chain: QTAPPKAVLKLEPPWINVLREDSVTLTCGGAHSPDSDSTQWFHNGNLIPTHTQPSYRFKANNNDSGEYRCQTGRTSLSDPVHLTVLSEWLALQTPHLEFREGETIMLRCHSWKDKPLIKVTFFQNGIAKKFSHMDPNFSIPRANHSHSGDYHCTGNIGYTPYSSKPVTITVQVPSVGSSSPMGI

T7: cynomolgus monkey FcγRIIa3 extracellular domain, C-terminal His-tag (cynomolgus monkey)
T7 construct: also called cyno FcγRIIa3; cynoFcgRIIa3
T7 chain: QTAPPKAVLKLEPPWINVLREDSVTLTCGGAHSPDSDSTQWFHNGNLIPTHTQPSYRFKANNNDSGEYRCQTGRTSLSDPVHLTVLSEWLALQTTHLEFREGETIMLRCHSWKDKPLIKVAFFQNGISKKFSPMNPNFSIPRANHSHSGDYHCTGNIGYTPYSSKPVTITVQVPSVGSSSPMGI

T8: human FcγRIIb extracellular domain, C-terminal His-tag (human, UniProt P31994 43-217)
T8 construct: also called human FcgRIIb; FcgRIIb
T8 sequence: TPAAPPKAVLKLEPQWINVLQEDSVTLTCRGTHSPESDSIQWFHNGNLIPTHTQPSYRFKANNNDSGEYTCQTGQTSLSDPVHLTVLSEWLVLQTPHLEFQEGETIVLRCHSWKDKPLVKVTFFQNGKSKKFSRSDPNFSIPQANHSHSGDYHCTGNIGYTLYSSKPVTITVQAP


What was measured:
Assay in all cases: SPR (Biacore), antibody captured, FcgR analyte
[1] = target: T9, human FcγRIIIaV extracellular domain, C-terminal His-tag (human, UniProt P08637 17-208)
T9 construct: also called human FcgRIIIaV; FcgRIIIaV
T9 sequence (P08637 17-208 F176V): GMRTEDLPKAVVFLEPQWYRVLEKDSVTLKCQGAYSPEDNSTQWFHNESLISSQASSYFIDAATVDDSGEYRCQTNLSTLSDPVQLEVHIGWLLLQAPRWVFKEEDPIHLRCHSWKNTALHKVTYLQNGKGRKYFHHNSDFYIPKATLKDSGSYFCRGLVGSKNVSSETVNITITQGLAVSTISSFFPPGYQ
Procedure: (§1) The kinetic analysis of interactions between these antibodies and FcγR was carried out using BIACORE® T200 or BIACORE® 4000 (GE Healthcare). HBS-EP+ (GE Healthcare) was used as the running buffer, and the measurement temperature was set to 25° C. A chip produced by immobilizing Protein A. Protein A/G or mouse anti-human IgG kappa light chain (BD Biosciences) onto a Series S Sensor Chip CM4 or CM5 (GE Healthcare) by the amine-coupling method was used. […] After the measurement, the antibody captured on the chip was washed off by allowing reaction with 10 mM glycine-HCl, pH1.5 and 25 mM NaOH so that the chip was regenerated and used repeatedly. The sensorgrams obtained as measurement results were analyzed by the 1:1 Langmuir binding model using the BIACORE® Evaluation Software to calculate the binding rate constant ka (L/mol/s) and dissociation rate constant kd (l/s), and the dissociation constant KD (mol/L) was calculated from these values. […] Regarding such interactions, KD values were calculated using the following 1:1 binding model described in BIACORE® T100 Software Handbook BR1006-48 Edition AE.
(§2) The behavior of interacting molecules according to the 1:1 binding model on BIACORE® can be described by Equation 1: Req=C·R max/(KD+C)+RI, wherein, Req is a plot of steady-state binding levels to analyte concentration. C is concentration, RI is bulk refractive index contribution in the sample, and Rmax is analyte binding capacity of the surface. When this equation is rearranged, KD can be expressed as Equation 2: KD=C·Rmax/(Req−RI)−C. KD can be calculated by substituting the values of Rmax, RI, and C into Equation 1 or Equation 2. From the current measurement conditions, RI=0, C=2 μmol/L can be used.

[2] = target: T1, cynomolgus monkey FcγRIIIaS …
Procedure: as §1, §2

[3] = target: T2, human FcγRIIaR extracellular domain, …
Procedure: as §1, §2

[4] = target: T3, cynomolgus monkey FcγRIIa2 …
Procedure: as §1, §2

[5] = target: T4, cynomolgus monkey FcγRIIb extracellular …
Procedure: as §1, §2

[6] = target: T5, human FcγRIIaH extracellular domain, …
Procedure: as §1, §2

[7] = target: T6, cynomolgus monkey FcγRIIa1 …
Procedure: as §1, §2

[8] = target: T7, cynomolgus monkey FcγRIIa3 …
Procedure: as §1, §2

[9] = target: T8, human FcγRIIb extracellular domain, …
Procedure: as §1, §2

Binder	Kd [1]	Kd [2]	Kd [3]	Kd [4]	Kd [5]	Kd [6]	Kd [7]	Kd [8]	Kd [9]
M103205H795-MY434/M103202L889-SK1 (antibody, human IgG1, kappa, Substitutions introduced into M103205H795-SG1; expressed with M103202L889-SK1 as light chain) heavy: QVTLKESGPVLVKPTETLTLTCTVSGIDLSHDDISWVRQAPGKGLEWVGIISYAGSTYYASWAKGRLTISKDTSKNQVVLTMTNMDPVDTATYYCARGVPAYSHGGDLWGQGTLVTVSSASTKGPSVFPLAPSSKSTSGGTAALGCLVKDYFPEPVTVSWNSGALTSGVHTFPAVLQSSGLYSLSSVVTVPSSSLGTQTYICNVNHKPSNTKVDKKVEPKSCDKTHTCPPCPAPELWNGPSVFLFPPKPKDTLMISRTPEVTCVVVDVSDEDPEVKFNWYVDGVEVHNAKTKPREEQYNSTYRVVSVLTVLHQDWLNGKEYKCKVSNKALPKPIEKTISKAKGQPREPQVYTLPPSREEMTKNQVSLTCLVKGFYPSDIAVEWESNGQPENNYKTTPPVLDSDGSFFLYSKLTVDKSRWQQGNVFSCSVMHEALHNHYTQKSLSLSP light: DIVMTQSPATLSLSPGERATLSCTSSQSVYHANWLSWFQQKPGQPPKLLIYWASTLAYGVPSRFSGSGSGTDFTLTISSLQPEDAATYYCAGGYGGGRYAFGQGTKVEIKRTVAAPSVFIFPPSDEQLKSGTASVVCLLNNFYPREAKVQWKVDNALQSGNSQESVTEQDSKDSTYSLSSTLTLSKADYEKHKVYACEVTHQGLSSPVTKSFNRGEC	16000 nM	11000 nM	1900 nM	2400 nM	740 nM	16000 nM	2900 nM	64000 nM	1400 nM
M103205H795-MY440/M103202L889-SK1 (antibody, human IgG1, kappa, Substitutions introduced into M103205H795-SG1; expressed with M103202L889-SK1 as light chain) heavy: QVTLKESGPVLVKPTETLTLTCTVSGIDLSHDDISWVRQAPGKGLEWVGIISYAGSTYYASWAKGRLTISKDTSKNQVVLTMTNMDPVDTATYYCARGVPAYSHGGDLWGQGTLVTVSSASTKGPSVFPLAPSSKSTSGGTAALGCLVKDYFPEPVTVSWNSGALTSGVHTFPAVLQSSGLYSLSSVVTVPSSSLGTQTYICNVNHKPSNTKVDKKVEPKSCDKTHTCPPCPAPELWNGPSVFLFPPKPKDTLMISRTPEVTCVVVDVSDEDPEVKFNWYVDGVEVHNAKTKPREELYNSTYRVVSVLTVLHQDWLNGKEYKCKVSNKALPKPIEKTISKAKGQPREPQVYTLPPSREEMTKNQVSLTCLVKGFYPSDIAVEWESNGQPENNYKTTPPVLDSDGSFFLYSKLTVDKSRWQQGNVFSCSVMHEALHNHYTQKSLSLSP light: DIVMTQSPATLSLSPGERATLSCTSSQSVYHANWLSWFQQKPGQPPKLLIYWASTLAYGVPSRFSGSGSGTDFTLTISSLQPEDAATYYCAGGYGGGRYAFGQGTKVEIKRTVAAPSVFIFPPSDEQLKSGTASVVCLLNNFYPREAKVQWKVDNALQSGNSQESVTEQDSKDSTYSLSSTLTLSKADYEKHKVYACEVTHQGLSSPVTKSFNRGEC	27000 nM	9300 nM	11000 nM	1800 nM	460 nM	910 nM	1600 nM	48000 nM	800 nM

Now those with a lower Kd [1], led by results:

Kd [1]	Kd [2]	Kd [3]	Kd [4]	Kd [5]	Kd [6]	Kd [7]	Kd [8]	Kd [9]	Binder
12000 nM	6600 nM	900 nM	2200 nM	610 nM	960 nM	2200 nM	4700 nM	670 nM	M103205H795-MY330/M103202L889-SK1 (antibody, human IgG1, kappa, Substitutions introduced into M103205H795-SG1; expressed with M103202L889-SK1 as light chain) heavy: QVTLKESGPVLVKPTETLTLTCTVSGIDLSHDDISWVRQAPGKGLEWVGIISYAGSTYYASWAKGRLTISKDTSKNQVVLTMTNMDPVDTATYYCARGVPAYSHGGDLWGQGTLVTVSSASTKGPSVFPLAPSSKSTSGGTAALGCLVKDYFPEPVTVSWNSGALTSGVHTFPAVLQSSGLYSLSSVVTVPSSSLGTQTYICNVNHKPSNTKVDKKVEPKSCDKTHTCPPCPAPELWNGPSVFLFPPKPKDTLMISRTPEVTCVVVDVSEEDPEVKFNWYVDGVEVHNAKTKPREEQYNSTYRVVSVLTVLHQDWLNGKEYKCKVSNKALPKPIEKTISKAKGQPREPQVYTLPPSREEMTKNQVSLTCLVKGFYPSDIAVEWESNGQPENNYKTTPMVLDSDGSFFLYSKLTVDKSRWQQGNVFSCSVMHEALHNHYTQKSLSLSP light: DIVMTQSPATLSLSPGERATLSCTSSQSVYHANWLSWFQQKPGQPPKLLIYWASTLAYGVPSRFSGSGSGTDFTLTISSLQPEDAATYYCAGGYGGGRYAFGQGTKVEIKRTVAAPSVFIFPPSDEQLKSGTASVVCLLNNFYPREAKVQWKVDNALQSGNSQESVTEQDSKDSTYSLSSTLTLSKADYEKHKVYACEVTHQGLSSPVTKSFNRGEC
7700 nM	5200 nM	5500 nM	1500 nM	740 nM	830 nM	1300 nM	86000 nM	2900 nM	M103205H795-MY289/M103202L889-SK1 (antibody, human IgG1, kappa, Substitutions introduced into M103205H795-SG1; expressed with M103202L889-SK1 as light chain) heavy: QVTLKESGPVLVKPTETLTLTCTVSGIDLSHDDISWVRQAPGKGLEWVGIISYAGSTYYASWAKGRLTISKDTSKNQVVLTMTNMDPVDTATYYCARGVPAYSHGGDLWGQGTLVTVSSASTKGPSVFPLAPSSKSTSGGTAALGCLVKDYFPEPVTVSWNSGALTSGVHTFPAVLQSSGLYSLSSVVTVPSSSLGTQTYICNVNHKPSNTKVDKKVEPKSCDKTHTCPPCPAPELLNGPSVFLFPPKPKDTLMISRTPEVTCVVVDVSHEDPEVKFNWYVDGVEVHNAKTKPREEQYNSTYRVVSVLTVLHQDWLNGKEYKCKVSNKALPKPIEKTISKAKGQPREPQVYTLPPSREEMTKNQVSLTCLVKGFYPSDIAVEWESNGQPENNYKTTPMVLDSDGSFFLYSKLTVDKSRWQQGNVFSCSVMHEALHNHYTQKSLSLSP light: DIVMTQSPATLSLSPGERATLSCTSSQSVYHANWLSWFQQKPGQPPKLLIYWASTLAYGVPSRFSGSGSGTDFTLTISSLQPEDAATYYCAGGYGGGRYAFGQGTKVEIKRTVAAPSVFIFPPSDEQLKSGTASVVCLLNNFYPREAKVQWKVDNALQSGNSQESVTEQDSKDSTYSLSSTLTLSKADYEKHKVYACEVTHQGLSSPVTKSFNRGEC
